For 21 molecules, EC50 results are on record in patent US20240218057A1 (ROCKEFELLER UNIVERSITY, published 2024).

B1: C890 (antibody, V domains shown)
VH: QVQLVQSGAEVKKPGSSVKASCKASGGTFSTYTISWVRQAPGHGLEWMGRIIPIFGTTKYAQKFQGRVTITADESTTTAYLELSSLRSEDTAVYYCTINTQWDLVPRWGQGTLVTVSS
VL: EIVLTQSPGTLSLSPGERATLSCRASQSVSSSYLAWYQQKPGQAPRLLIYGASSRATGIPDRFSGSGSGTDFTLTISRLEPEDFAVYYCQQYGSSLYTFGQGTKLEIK
notes: IgG; V domains only
B2: C887 (antibody, V domains shown)
VH: EVQLVESGGDLVQPGGSLRLSCAASGFTFTTYSMSWVRQAPGKGLEWISYINSGSANIHYADSVKGRFTVSRDNAKNSLYLQMNSLRDEDTAVYYCARGDCLSSSCYSLDYWGQGALVTVSS
VL: DIQMTQSPSSLSASVGDRVTITCRASQSITSYLSWYLQKPGEAPKLLIYAASILQSGVPSRFGGNGSGTDFTLTISSLQPEDFATFYCQQTYRSPLTFGGGTKVEIK
notes: IgG; V domains only
B3: C886 (antibody, V domains shown)
VH: EVQLVESGGDLVQPGGSLRLSCAASGFSVTTNAMAWVRQAPGKGLEWISYINIGSANIQYADSVKGRFTISRDNAKNSLYLQMNSLRDEDTAVYYCARGDCTSSSCYSLDYWGQGALVTVSS
VL: DIQMTQSPSSLSASVGDRVSITCRASQTINTHLSWYLQKPGEAPRLLVYAASTLHSGVPSRFSGSGSGTDFTLTISSLQPEDFATFYCQQTYRFPLTFGGGTKVEIK
notes: IgG; V domains only
B4: C884 (antibody, V domains shown)
VH: QVQLQQWGAGLLKPSETLSLTCVVYGGSFSAYYWSWIRQPPGKGLEWIGEINHSGSTNYKSSLQSRVTISVDTSKNQFSLKLSSVTAADTAVYYCARETGTYGTFDHWGQGTLVTVSS
VL: EIVLTQSPGTLSLSPGERATLSCRASQSVSSTYLAWYQQKPGQAPRLLIYGASSRATGIPDRFSGSGSGTDFTLTISRLEPEDFAVYYCQQYAFSVWTFGQGTKVEI
notes: IgG; V domains only
B5: C872 (antibody, V domains shown)
VH: EVQLVESGGGLIQPGGSLRLSCAASGFIVSNNYISWVRQAPGKGLEWVSVIYSGGTTYYADSVKGRFSISRDTSKNTVYLQINNLRAEDTAVYYCAREGDVDGNYGFWSGYSRDRYYFDYWGQGTLVTVSS
VL: QSALTQPASVSGSPGQSITISCTGTSSDVGAYNYVAWYQQHPGKAPKLMVYDVSKRPSGVSNRFSGSKSGNTASLTISGLQTEDEGDYYCCSYTTNTTRVFGTGTMLTVL
notes: IgG; V domains only
B6: C878 (antibody, V domains shown)
VH: EVQLVESGGGLVQPGGSLRLSCSVSGFTFSNFAMHWVRQAPGKGLEFVSGVSSDGDITDYADSVKGRFTISRDNSKNTLYLQMSSLRPEDTAVYYCVKDKEHSTMVTIFDFWGQGTLVTVSS
VL: DIQMTQSPSSLSASVGDRVTITCRASQSISSFLNWYQQKPGKAPKLLIYAASSLQSGVPSRFSGRGSGADFTLTITSLQPEDFATYFCQQSYSSHLTFGPGTKVDIK
notes: IgG; V domains only
B7: C885 (antibody, V domains shown)
VH: QVQLQESGPGLVKPSQTLSLTCAVSGDSIRSGGYYWSWVRQHPGRGLEWIGYIYFSGTTYYNPSLKSRVTISVDTSEKQFSLKLTSVTDADTAVYFCARVKGWLRGYFDYWGQGALVTVSS
VL: NFMLTQSHSVSESPGKTVTISCTGSSGNIVNNYVQWYQQRPGSAPIIVIYEDTQRPSGVPDRFSGSIDTSSNSASLTISGLKTEDEADYYCQSYDSGSHVVFGGGTKLTV
notes: IgG; V domains only
B8: C879 (antibody, V domains shown)
VH: QVQLQESGPGLVKPSQTLSLTCGVSGDSISSGGHFWSWVRQHPGTGLEWIAYSPFSGTTYYNPSLKSRVTLSVDTSKNQFFLSLTSVTDADTAVYFCARVKGWLRGYFDHWGQGVLVTVSS
VL: NFMLTQPHSVSESPGKTVTISCTASSGNIVNNYVQWYQQRPGSAPIIVIYEDAQRPSGVPDRFSGSIDTSSNSASLTISGLKTEDEADYYCQSYEIDSHVVFGGGTRLTV
notes: IgG; V domains only
B9: C881 (antibody, V domains shown)
VH: EVQLVESGGGLIQPGGSLRLSCAVSGVAVSTNYMSWVRQAPGQGLEWVSTIYSGDTTYYSDSVKGRFTISRDNSKNTFYLQMNSLRVPDTAVYYCARLGGVFNGFNGSFDYWGQGTLVTVS
VL: QSALTQPASVSGSPGQSITISCIGTSSDFENYNLVSWYQQHPGKAPKVMIYEDTKRPSGVSNRFSGSKSANTASLTISGLQAEDEAEYYCCSYAGASTWVFGGGTRVTVV
notes: IgG; V domains only
B10: C877 (antibody, V domains shown)
VH: EVQLVESGGGLIPPGGSLRLSCAASGIIVSRNYMSWVRQTPGKGLEWVSVMYAGGTKEYADSVKGRFIISRDDSNNTLYLQMNSLRAEDTAVYYCARDLIVLGVDVWGQGTTVTVSS
VL: DIQLTQSPSFLSASVGDRVTITCRASQGISNYLAWYQQKPGKAPKLLIYAASTLQSGVPSRFSGSGSGTEFTLTISSLQPEDFATYYCQLLNSYPMCSFGQGTKLEIK
notes: IgG; V domains only
B11: C888 (antibody, V domains shown)
VH: EVQLVESGGGLVQPGGSLRLSCAASGFTVSSNYMSWVRQAPGKGLEWVSVIYSGGSAYYADSVKGRFTISRDNSKNTLYLQMNSLRAEDTAVYYCARDLRDQDGYSYGAFDYWGQGTLVTVSS
VL: QSALTQPASVSGSPGQSITISCTGTSSDVGGYNYVSWYQQHPGKAPKLMIYDVSNRPSGVSNRFSGSKSGNTASLTISGLQAEDEADYYCSSYTSSSSWVFGGGTKLTVL
notes: IgG; V domains only
B12: C893 (antibody, V domains shown)
VH: EVQLVQSGAEVKKPGESLKISCKGSGYYFTRQWIGWVRQMPGKGLEWMGIIYPGDSDTRYSPSFQGQVTISADKSISTAYLQWSSLKASDTAMYYCARGGWDPAEYSSSGGGGLDAFDIWGQGTMVTVSS
VL: EIVLTQSPATLSLSPGERATLSCRASQSVSSYLAWYQQRPGRAPRLLIYDASNRATGIPGRFSGSGSGTDFSLTISSLEPEDFAVYYCQQRSSWPLTFGQGTRLEIK
notes: IgG; V domains only
B13: C880 (antibody, V domains shown)
VH: QVQLQQWGAGLLKPSETLSLTCAVYGGSFSDYYWSWIRQPPGKGLEWIGENNHSGKTNYNPSLENRVTISVDTSKNQFSLKLTSVTAADTAVYYCARESGSYGTFDYWGQGTLVTVSS
VL: EIVLTQSPGTLSLSPGERATLSCRASQSVSSAYLAWYQQKPGQAPRLLIYGASSRATGIPDRFSGSGSGTDFTLTISRLEPEDFAVYFCQQYAYTIWTFGQGTKVEIK
notes: IgG; V domains only
B14: C895 (antibody, V domains shown)
VH: QVQLVQSGAEVKKPGSSVKVSCKASGGTFTSYAFSWVRQAPGQGLEWMGGIIPIFGTTNYAQKFQGRVTITADESTSTAYMELSSLRSEDTAVYYCARPEGCGSRTSCTPGAYYYGMDVWGQGTTVTVSS
VL: EIVLTQSPATLSLSPGERATLSCRASQSVGSYLAWYQQKPGQAPRLLIYDASNRATGIPARFSGSGSGTDFTLTISSLEPEDFAFYFCQQRNSWPPEYSFGQGTKLEIK
notes: IgG; V domains only
B15: C873 (antibody, V domains shown)
VH: QVQLVQSGPEVKKPGASVKVSCKASGYIFTDYSIHWVRQAPGQGLEWMGWINPNSGGGNSAQIFKGRATMARDTSITTVYMDLSGLRSDDTAVYYCARGPLFHKVVYESSSGFHDGLDFWGQGTMVTVSS
VL: QSALTQPASVSGSPGQSVTISCTGTSSDVGGYNFLSWYQQHPGKAPKLLLYEVINRPSGVSDRFSGSKSGNTASLTISGLQAEDEADYYCNSYTSNFTWVFGGGTHLTV
notes: IgG; V domains only
B16: C875 (antibody, V domains shown)
VH: QVQLVQSGAEVKQPGASVKISCKASGYIFTTYFMHWVRQAPGQGLEWLGIIDPTISGASLAQKFQGRVTMTSDTSTSTVYMEMRSLRSDDTALYFCARASTSTSSWSEALSLGSWGQGTLVTVSS
VL: QSVLTQPPSVSGAPGQGVSISCTGSSSNVGAGYGVHWYQQLPGTTPKLLIYDNNSRPAGVPDRFSGSKSGTSASLAIAGLQPEDEADYYCQSWDNGLSGSGVVFGGGTKVTVL
notes: IgG; V domains only
B17: C891 (antibody, V domains shown)
VH: EVQLVESGGGLVKPGGSLRLSCAVSGFTFSNVWMSWVRQAPGKGLEWVGRIKSKTDGGTTDYAAPVKGRFTISRDDSKNTLYLQMNSLKTEDTAVYYCTSQLWLRGPGDYWGQGTLVTVSS
VL: NFMLTQPHSVSESPGKTVTISCTGSSGSIASNYVQWYQQRPGSAPTTVIYEDNQRPSGVPDRFSGSIDSSSNSASLTISGLKTEDEADYYCQSYDSSLNWVFGGGTKLTVL
notes: IgG; V domains only
B18: C892 (antibody, V domains shown)
VH: EVQLVESGGGLVKPGGSLKVSCTASGFTFTDAWMSWVRQAPGKGLEWVGRIKSRAYGGTTDYGAPVQGRFTISRDDSINTLYLQMNSLTAEDTAVYYCTSQLWLRGPGDYWGQGTLVTVSS
VL: NFMLTQPHSVSESPGKTVTISCTGSSGSIASNYVHWYQQRPGGAPTTVIYEDNQRPSGVPDRFSGSIDISSNSASLTISGLKTEDEGDYYCQSYDSGVNWVFGGGTKLTVL
notes: IgG; V domains only
B19: C882 (antibody, V domains shown)
VH: QVQLVESGGGVVQPGRSLRLSCAASGFTFIRYNMHWVRQAPGKGLEWVAVIWYDGSNKYYADSVKGRFTISRDNSKNTLYLQMNSLRAEDTAVYYCARDPMIVVVEMDYWGQGTLVTVSS
VL: DVVMTQSPLSLPVTLGQPASISCNSSQSLVHTDGNTYLNWFQQRPGQSPRRLIYKVSNRDSGVPDRFSGSGSDTDFTLQISRVEADDVGVYYCMQGSHWPYTFGQGTKLEIK
notes: IgG; V domains only
B20: C876 (antibody, V domains shown)
VH: EVQLVESGGGLIQPGGSLRLSCAASEFVISRNYMSWVRQAPKKGLEWVSVLYSGGSTFYADSVKGRFTISRDDSRNMLYLQMNSLRAEDTAVYYCVRDFGEFYFDYWGQGVLVTVSS
VL: EIVMTQSPTTLSVSPGERATLSCRASQSLSSNLAWYQQKPGQAPRLLIFGVSTRATGIPARFSGSGSGTEFTLTISSLQSEDFAVYYCQQYYSGPRTFGQGTKVEIK
notes: IgG; V domains only
B21: C889 (antibody, V domains shown)
VH: EVQLVESGGGLVQPGGSLRLSCAVSGFTVSSNYMTWVRQAPGKGLEWVSLIYSGTSAFYADSVKGRFTISRDNSKNTLYLQMSSLRVNDTAIYYCARDLRKDDGYSYGAFDYWGQGTLVTVSS
VL: QSALTQPASVSGSPGQSITISCSGTSSDVGAHNYVSWYQQYPGKAPKLMIFDVTDRPSGVSNRFSGSKSGNTASLTISGLQAEDEADYYCTSYTTNRSWVFGGGTKVTVL
notes: IgG; V domains only

The target in this experiment is T1, SARS-COV-2 RBD (SARS-COV-2, UniProt P0DTC2 319-539).
T1 construct: also called WT RBD
The experiment is described as follows: ELISA, RBD coated.
Take B1: the EC50 is 9.68 ng/mL.

B2 yielded an EC50 of 3.2 ng/mL.

In the case of B3, the EC50 stood at 2.48 ng/mL.

In turn, B4 displayed an EC50 of 4.22 ng/mL.

The molecule B5 showed an EC50 of 2.19 ng/mL.

As to B6, the EC50 worked out at 2.88 ng/mL.

As for B7, the EC50 turned out to be 7.45 ng/mL.

Regarding B8, the EC50 was found to be 4.25 ng/mL.

As to B9, a half-maximal response (EC50) required 1.88 ng/mL.

Turning to B10, the midpoint of the response, the EC50, lay at 2.53 ng/mL.

For the molecule B11, the EC50 turned out to be 1.44 ng/mL.

On to B12, for which the EC50 is 3.73 ng/mL.

B13: a half-maximal effect (EC50) was put at 2.2 ng/mL.

In turn, B14 returned an EC50 of 2.21 ng/mL.

Molecule B15 gave an EC50 of 4.05 ng/mL.

In turn, B16 showed an EC50 of 3.5 ng/mL.

The molecule B17 gave an EC50 of 2.14 ng/mL.

As to B18, the midpoint of the response, the EC50, lay at 1.83 ng/mL.

With B19, the EC50 stood at 2.9 ng/mL.

Molecule B20 displayed an EC50 of 3.53 ng/mL.

B21 yielded an EC50 of 0.8 ng/mL.
